Results: publication PMC7319273 (Science (New York, N.y.), 2020)

B1: 0304-3H3 (human monoclonal antibody) (antibody, V domains shown)
VH: EVQLVESGPGLVKPSETLSLTCTASGGSISTYYWSWIRQPPGKGLEWIGYIYYSGSTNYNPSLKSRVTISVDTSKNQFSLKLSSVTAADTAVYYCARDRIAPVGKFFGWYFDLWGRGTLVTVSS
VL: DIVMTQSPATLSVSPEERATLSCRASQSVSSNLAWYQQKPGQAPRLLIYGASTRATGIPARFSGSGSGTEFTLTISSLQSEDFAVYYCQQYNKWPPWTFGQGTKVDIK
notes: also called mAb 0304-3H3
B2: 2M-10B11 (human monoclonal antibody) (antibody, V domains shown)
VH: EVQLVESGGGLVQPGGSLRLSCAASGFTVSSNYMSWVRQAPGKGLEWVSVIYSGGSTYYADSVKGRFTISRDNSKNTLYLQMNSLRAEDTAVYYCARATWLRGVMDVWGQGTTVTVSS
VL: QSALTQPHSVSESPGKTVTISCTGSSGSIASNYVQWYQQRPGSAPTTVIYEDNQRPSGVPDRFSGSIDSSSNSASLTISGLKTEDEADYYCQSYDSSNHWVFGGGTKLTVL
notes: ELISA group 2B; also called mAb 2M-10B11
B3: 1M-1D2 (human monoclonal antibody) (antibody, V domains shown)
VH: QVQLVESGGGLVQPGGSLRLSCAASGFTFSSYAMHWVRQAPGKGLEYVSAISGNGGSTYYAKSVKGRFTISRDNSKNTLYLQMGSLRAEDMAVYYCARGAEYYDFWSGYYSAYFDYWGQGTLVTVSS
VL: QAVVTQPPSASGTPGQRVTISCSGSSSNIGSNYVYWYQQLPGTAPKLLIYNNNQRPSGVPDRFSGSKSGTSASLAISGLRSEDEADYYCAAWDDSLIYVLFGGGTKLTVL
B4: 9A1 (human monoclonal antibody) (antibody, V domains shown)
VH: EVQLLESGGGVVQPGRSLRLSCVVSGFTFNNYGMHWVRQAPGKGLEWVAVISYEGSVKYYGDHVDGRFTISRDPFKNTLYLHMNNLRPDDTAVYYCAKVSAIFWLGQGLSPIDVWGQGTTVTVSS
VL: DIVMTQSPATLSASPGERVTLSCRASQNIRNNLAWYQQKPGQAPRLLIHGASTRAAGAPARFSGSGSDTQFTLTVSSLQSEDFAVYYCHQYSKWPVTFGGGTKVDIK
notes: also called mAb 9A1

Assays:
[1] = biological target: T1, SARS-CoV-2 Spike protein extracellular domain (S-ECD), as used in ELISA and BLI (SARS-CoV-2, Wuhan-Hu-1 (P0DTC2)); assay: cell-based or functional assay
[2] = biological target: T1, SARS-CoV-2 Spike protein extracellular …; assay: BLI; details: both partners purified

| Binder | neutralization of authentic SARS-CoV-2 in Vero-E6 cells, EC50 [1] [µg/mL] | Kd [2] [nM] |
| --- | --- | --- |
| B1 | 0.04 | < 2.14 |
| B2 | – | < 2.14 |
| B3 | 28 | < 2.14 |
| B4 | – | < 2.14 |
